{
  "source": "patent US20110053865A1",
  "about": "(published 2011)",
  "key": {"12F11": {"biological_target": "12F11", "test": "Biacore; R&D hIL23"}, "12C10": {"biological_target": "12C10", "test": "Biacore; R&D hIL23"}, "124E5": {"biological_target": "124E5", "test": "Biacore; R&D hIL23"}, "124F10": {"biological_target": "124F10", "test": "Biacore; R&D hIL23"}, "124G2": {"biological_target": "124G2", "test": "Biacore; R&D hIL23"}, "12D11": {"biological_target": "12D11", "test": "Biacore; R&D hIL23"}, "124D4 [1]": {"biological_target": "124D4", "test": "Biacore; R&D hIL23"}, "12A4": {"biological_target": "12A4", "test": "Biacore; R&D hIL23"}, "12A11": {"biological_target": "12A11", "test": "Biacore; R&D hIL23"}, "124C5": {"biological_target": "124C5", "test": "Biacore; R&D hIL23"}, "124E3": {"biological_target": "124E3", "test": "Biacore; R&D hIL23"}, "124D11 [2]": {"biological_target": "124D11", "test": "Biacore; R&D hIL23"}, "12E11": {"biological_target": "12E11", "test": "Biacore; R&D hIL23"}, "4D2": {"biological_target": "4D2", "test": "Biacore; R&D hIL23"}, "124H1": {"biological_target": "124H1", "test": "Biacore; R&D hIL23"}, "124G4 [3]": {"biological_target": "124G4", "test": "Biacore; R&D hIL23"}, "4E3": {"biological_target": "4E3", "test": "Biacore; R&D hIL23"}, "124C3": {"biological_target": "124C3", "test": "Biacore; R&D hIL23"}, "124H2 [4]": {"biological_target": "124H2", "test": "Biacore; R&D hIL23"}, "124B5 [5]": {"biological_target": "124B5", "test": "Biacore; R&D hIL23"}, "4E7": {"biological_target": "4E7", "test": "Biacore; R&D hIL23"}, "124D2": {"biological_target": "124D2", "test": "Biacore; R&D hIL23"}, "4A11": {"biological_target": "4A11", "test": "Biacore; R&D hIL23"}, "124H5 [6]": {"biological_target": "124H5", "test": "Biacore; R&D hIL23"}, "4E11": {"biological_target": "4E11", "test": "Biacore; R&D hIL23"}, "12G7": {"biological_target": "12G7", "test": "Biacore; R&D hIL23"}, "12H2": {"biological_target": "12H2", "test": "Biacore; R&D hIL23"}, "124B6": {"biological_target": "124B6", "test": "Biacore; R&D hIL23"}, "12D2": {"biological_target": "12D2", "test": "Biacore; R&D hIL23"}, "124F9": {"biological_target": "124F9", "test": "Biacore; R&D hIL23"}, "124F7": {"biological_target": "124F7", "test": "Biacore; R&D hIL23"}, "80C10 [7]": {"biological_target": "80C10", "test": "Biacore"}, "121C1": {"biological_target": "121C1", "test": "Biacore"}, "3A10": {"biological_target": "3A10", "test": "Biacore"}, "80C10 [8]": {"biological_target": "80C10", "test": "Biacore", "remark": "listed apart in the source"}, "121C1 = 84D3": {"biological_target": "121C1 = 84D3", "test": "Biacore"}, "3A7": {"biological_target": "3A7", "test": "Biacore"}, "1G8": {"biological_target": "1G8", "test": "Biacore"}, "3D4": {"biological_target": "3D4", "test": "Biacore"}, "3G9": {"biological_target": "3G9", "test": "Biacore"}, "3H5": {"biological_target": "3H5", "test": "Biacore"}, "3C7": {"biological_target": "3C7", "test": "Biacore"}, "3A11": {"biological_target": "3A11", "test": "Biacore"}, "3E1": {"biological_target": "3E1", "test": "Biacore"}, "4F3": {"biological_target": "4F3", "test": "Biacore"}, "124D4 [9]": {"biological_target": "124D4", "test": "Biacore"}, "124D11 [10]": {"biological_target": "124D11", "test": "Biacore"}, "124G4 [11]": {"biological_target": "124G4", "test": "Biacore"}, "124H2 [12]": {"biological_target": "124H2", "test": "Biacore"}, "124B5 [13]": {"biological_target": "124B5", "test": "Biacore"}, "124H5 [14]": {"biological_target": "124H5", "test": "Biacore"}},
  "note": "Where two headings read alike, the source gives them in different places.",
  "data": [
    {"binder": "R&D hIL23 (ligand) chain 1: RAVPGGSSPAWTQCQQLSQKLCTLAWSAHPLVGHMDLREEGDEETTNDVPHIQCGDGCDPQGLRDNSQFCLQRIHQGLIFYEKLLGSDIFTGEPSLLPDSPVGQLHASLLGLSQLLQPEGHHWETQQIPSLSPSQPWQRLLLRFKILRSLQAFVAVAARVFAHGAATLSP chain 2: IWELKKDVYVVELDWYPDAPGEMVVLTCDTPEEDGITWTLDQSSEVLGSGKTLTIQVKEFGDAGQYTCHKGGEVLSHSLLLLHKKEDGIWSTDILKDQKEPKNKTFLRCEAKNYSGRFTCWWLTTISTDLTFSVKSSRGSSDPQGVTCGAATLSAERVRGDNKEYEYSVECQEDSACPAAEESLPIEVMVDAVHKLKYENYTSSFFIRDIIKPDPPKNLQLKPLKNSRQVEVSWEYPDTWSTPHSYFSLTFCVQVQGKSKREKKDRVFTDKTSATVICRKNASISVRAQDRYYSSSWSEWASVPCS", "values": [
      {"measurement": "koff", "setting": "12F11", "result": 0.000235, "unit": "s⁻¹"},
      {"measurement": "koff", "setting": "12C10", "result": 0.000289, "unit": "s⁻¹"},
      {"measurement": "koff", "setting": "124E5", "result": 0.000187, "unit": "s⁻¹"},
      {"measurement": "koff", "setting": "124F10", "result": 0.000169, "unit": "s⁻¹"},
      {"measurement": "koff", "setting": "124G2", "result": "6.55e-05", "unit": "s⁻¹"},
      {"measurement": "koff", "setting": "12D11", "result": 0.000121, "unit": "s⁻¹"},
      {"measurement": "koff", "setting": "124D4 [1]", "result": 0.000348, "unit": "s⁻¹"},
      {"measurement": "koff", "setting": "12A4", "result": 0.000295, "unit": "s⁻¹"},
      {"measurement": "koff", "setting": "12A11", "result": 0.000134, "unit": "s⁻¹"},
      {"measurement": "koff", "setting": "124C5", "result": 0.000357, "unit": "s⁻¹"},
      {"measurement": "koff", "setting": "124E3", "result": 0.000261, "unit": "s⁻¹"},
      {"measurement": "koff", "setting": "124D11 [2]", "result": 0.000259, "unit": "s⁻¹"},
      {"measurement": "koff", "setting": "12E11", "result": 0.000237, "unit": "s⁻¹"},
      {"measurement": "koff", "setting": "4D2", "result": 0.000111, "unit": "s⁻¹"},
      {"measurement": "koff", "setting": "124H1", "result": 0.000158, "unit": "s⁻¹"},
      {"measurement": "koff", "setting": "124G4 [3]", "result": 0.000146, "unit": "s⁻¹"},
      {"measurement": "koff", "setting": "4E3", "result": 0.000164, "unit": "s⁻¹"},
      {"measurement": "koff", "setting": "124C3", "result": 0.000123, "unit": "s⁻¹"},
      {"measurement": "koff", "setting": "124H2 [4]", "result": 0.000116, "unit": "s⁻¹"},
      {"measurement": "koff", "setting": "124B5 [5]", "result": 0.00022, "unit": "s⁻¹"},
      {"measurement": "koff", "setting": "4E7", "result": 0.000101, "unit": "s⁻¹"},
      {"measurement": "koff", "setting": "124D2", "result": "9.08e-05", "unit": "s⁻¹"},
      {"measurement": "koff", "setting": "4A11", "result": 0.00032, "unit": "s⁻¹"},
      {"measurement": "koff", "setting": "124H5 [6]", "result": 0.000246, "unit": "s⁻¹"},
      {"measurement": "koff", "setting": "4E11", "result": 0.000126, "unit": "s⁻¹"},
      {"measurement": "koff", "setting": "12G7", "result": 0.000242, "unit": "s⁻¹"},
      {"measurement": "koff", "setting": "12H2", "result": 0.000126, "unit": "s⁻¹"},
      {"measurement": "koff", "setting": "124B6", "result": 0.000249, "unit": "s⁻¹"},
      {"measurement": "koff", "setting": "12D2", "result": 0.000101, "unit": "s⁻¹"},
      {"measurement": "koff", "setting": "124F9", "result": 0.00031, "unit": "s⁻¹"},
      {"measurement": "koff", "setting": "124F7", "result": 0.000382, "unit": "s⁻¹"}
    ]},
    {"binder": "hIL12 (ligand) chain 1: RNLPVATPDPGMFPCLHHSQNLLRAVSNMLQKARQTLEFYPCTSEEIDHEDITKDKTSTVEACLPLELTKNESCLNSRETSFITNGSCLASRKTSFMMALCLSSIYEDLKMYQVEFKTMNAKLLMDPKRQIFLDQNMLAVIDELMQALNFNSETVPQKSSLEEPDFYKTKIKLCILLHAFRIRAVTIDRVMSYLNAS chain 2: IWELKKDVYVVELDWYPDAPGEMVVLTCDTPEEDGITWTLDQSSEVLGSGKTLTIQVKEFGDAGQYTCHKGGEVLSHSLLLLHKKEDGIWSTDILKDQKEPKNKTFLRCEAKNYSGRFTCWWLTTISTDLTFSVKSSRGSSDPQGVTCGAATLSAERVRGDNKEYEYSVECQEDSACPAAEESLPIEVMVDAVHKLKYENYTSSFFIRDIIKPDPPKNLQLKPLKNSRQVEVSWEYPDTWSTPHSYFSLTFCVQVQGKSKREKKDRVFTDKTSATVICRKNASISVRAQDRYYSSSWSEWASVPCS", "values": [
      {"measurement": "koff", "setting": "80C10 [7]", "result": 0.000578, "unit": "s⁻¹"},
      {"measurement": "koff", "setting": "121C1", "result": 0.0371, "unit": "s⁻¹"},
      {"measurement": "koff", "setting": "3A10", "result": 0.00353, "unit": "s⁻¹"},
      {"measurement": "koff", "setting": "80C10 [8]", "result": 0.000578, "unit": "s⁻¹"},
      {"measurement": "koff", "setting": "121C1 = 84D3", "result": 0.0371, "unit": "s⁻¹"},
      {"measurement": "koff", "setting": "3A7", "result": 0.00588, "unit": "s⁻¹"},
      {"measurement": "koff", "setting": "1G8", "result": 0.000779, "unit": "s⁻¹"},
      {"measurement": "koff", "setting": "3D4", "result": 0.00714, "unit": "s⁻¹"},
      {"measurement": "koff", "setting": "3G9", "result": 0.00768, "unit": "s⁻¹"},
      {"measurement": "koff", "setting": "3H5", "result": 0.00375, "unit": "s⁻¹"},
      {"measurement": "koff", "setting": "3C7", "result": 0.0119, "unit": "s⁻¹"},
      {"measurement": "koff", "setting": "3A11", "result": 0.00636, "unit": "s⁻¹"},
      {"measurement": "koff", "setting": "3E1", "result": 0.00956, "unit": "s⁻¹"},
      {"measurement": "koff", "setting": "4F3", "result": 0.00255, "unit": "s⁻¹"}
    ]},
    {"binder": "R&D mIL23 (ligand) chain 1: VPRSSSPDWAQCQQLSRNLCMLAWNAHAPAGHMNLLREEEDEETKNNVPRIQCEDGCDPQGLKDNSQFCLQRIRQGLAFYKHLLDSDIFKGEPALLPDSPMEQLHTSLLGLSQLLQPEDHPRETQQMPSLSSSQQWQRPLLRSKILRSLQAFLAIAARVFAHGAATLTEPLVPTA chain 2: MWELEKDVYVVEVDWTPDAPGETVNLTCDTPEEDDITWTSDQRHGVIGSGKTLTITVKEFLDAGQYTCHKGGETLSHSHLLLHKKENGIWSTEILKNFKNKTFLKCEAPNYSGRFTCSWLVQRNMDLKFNIKSSSSSPDSRAVTCGMASLSAEKVTLDQRDYEKYSVSCQEDVTCPTAEETLPIELALEARQQNKYENYSTSFFIRDIIKPDPPKNLQMKPLKNSQVEVSWEYPDSWSTPHSYFSLKFFVRIQRKKEKMKETEEGCNQKGAFLVEKTSTEVQCKGGNVCVQAQDRYYNSSCSKWACVPCRVRS", "values": [
      {"measurement": "koff", "setting": "124D4 [9]", "result": 0.0029, "unit": "s⁻¹"},
      {"measurement": "koff", "setting": "124D11 [10]", "result": 0.00744, "unit": "s⁻¹"},
      {"measurement": "koff", "setting": "124G4 [11]", "result": 0.00329, "unit": "s⁻¹"},
      {"measurement": "koff", "setting": "124H2 [12]", "result": 0.00291, "unit": "s⁻¹"},
      {"measurement": "koff", "setting": "124B5 [13]", "result": 0.00105, "unit": "s⁻¹"},
      {"measurement": "koff", "setting": "124H5 [14]", "result": 0.00304, "unit": "s⁻¹"}
    ]}
  ]
}
